Changes are numbered by the printed parent chain.
B1: Ab20 Fab (Fab, V domains shown)
VH: EVQLQQSGPELVKPGASVKISCKASGFSFTGYSMNWMKQSPEKSLEWIGEINPTTGGTTYNQKFKAKATLTVDKSSSTAYIQLKSLTSEDSAVYYCARGRADYWGQGTTLTVSS
VL: DIVLTQSPASLAVSLGQRATISCRASESVEYYGTGLVQWFQQKPGQPPKLLIYAASNVESGVPARFSGSGSGTDFSLNIHSVEEDDIAMYFCHQSRKLPWTFGGGTKLEIK
B2: Ab15 Fab (Fab, V domains shown)
VH: EVQLQQSGPELVKPGASVKISCKASGYSFTGYYMNWVKQSPEKSLEWIGEINPNFGGTTYNQKFKAKATLTVDKSSSTAYMQLKSLTSEDSAVYYCARYYGNLYAMDYWGQGTSVTVS
VL: DILMTQSPSSMSVSLGDTVSITCHASQGISSNIGWLQQKPGKSFKGLIYHGTNLEDGVPSRFSGSGSGAAYSLTISSLESEDFADYYCVQYTHFPYTFGGGTKLEIK
B3: Ab19 Fab (Fab, V domains shown)
VH: QVQLQQSGAELARPGASVKLSCKASGYPFTSYGINWVKQRTGQGLEWIGEIYPRIGNTYYNEKFKGKATLTADKSSSTAYMEFRSLTSEDSAVYFCARSWNSNYGEYYFDYWGQGTTLTVS
VL: DIVMTQSHKFMSTSIGDRVSITCKASHDVSTAVAWYQQKPGQSPKLLIYWASTRHTGVPDRFTGSGSGTDYTLTIRSVQAEDLALYYCQQHYSTPYTFGGGTKLEIK
B4: Ab16 Fab (Fab, V domains shown)
VH: B2 VH with T30N, G31N, F55S, G57Y, T59S, K65R, S77T, Y100F, Y104F, Y108F
VL: B2 VL with S30G, H50L, A70D, T92V, H93Q
B5: Ab17 Fab (Fab, V domains shown)
VH: EVQLQQSGPELVKPGASVKISCKASGYSFTDYYMNWVKQSPEKSLEWIGEINPNTGGTTYNQKFKAKATLTVDKSSSTAYMQLKSLTSEDSAVYYCARYYGNLYAMDYWGQGTSVTVSS
VL: B2 VL with A70D, T92V, H93Q, F98L

molecular target: T1, SARS-2 RBM^hg RBD construct (SARS-2 RBD with engineered glycans at 448, 475, 494 and 501) (SARS-CoV-2 (engineered), UniProt P0DTC2 319-529); test: BLI with recombinant Fabs, drawn table of KD (µM), column ΔRBM

Binder | Kd [nM]
B1 | > 100000
B2 | 1300
B3 | > 100000

molecular target: T1, SARS-2 RBM^hg RBD construct (SARS-2 RBD …); test: BLI with recombinant Fabs, drawn table of KD (µM)

Binder | Kd [nM]
B1 | > 100000
B2 | 1300
B4 | 160
B5 | 100
B3 | > 100000
